Laboratory results published in the supplement of paper PMC9112550, “Optimization of the antimicrobial peptide Bac7 by deep mutational scanning” (BMC Biology, 2022).

Test system: Escherichia coli TOP10
Assay: shrunken log2 fold change of peptide-encoding DNA abundance (4.5 h post-induction vs induction); higher = less antimicrobial activity (less host growth inhibition)
Settings: time post-induction: 4.5 h; library: site-saturation at positions 5, 18, 19, 20
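Further: peptides expressed intracellularly from a pBAD plasmid library in pooled LB shake-flask culture, induced with 0.3% L-arabinose, DNA abundance read by NGS, three biological replicates, DESeq2 with apeglm shrinkage.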

Sequence	shrunken log2 fold change
RRIRCRPPRLPRPRPRPHHSPRP	-0.201
RRIRPRPPRLPRPRPRPNPQPRP	-0.0414
RRIRQRPPRLPRPRPRPCSFPRP	-0.0439
RRIRDRPPRLPRPRPRPSMSPRP	-0.33
RRIRARPPRLPRPRPRPCIGPRP	0.0942
RRIRLRPPRLPRPRPRPGEVPRP	0.117
RRIRFRPPRLPRPRPRPRANPRP	0.509
RRIRVRPPRLPRPRPRPSYRPRP	-0.775
RRIRWRPPRLPRPRPRPRDDPRP	0.341
RRIRIRPPRLPRPRPRPVFYPRP	-0.333
RRIRHRPPRLPRPRPRPCRLPRP	0.0253
RRIRDRPPRLPRPRPRPCIAPRP	0.0755
RRIRMRPPRLPRPRPRPPWQPRP	0.763
RRIRVRPPRLPRPRPRPCRKPRP	0.068
RRIRNRPPRLPRPRPRPVWYPRP	-0.326
RRIRMRPPRLPRPRPRPDWYPRP	-0.135
RRIRDRPPRLPRPRPRPDNCPRP	-0.000924
RRIRVRPPRLPRPRPRPGMYPRP	-0.241
RRIRTRPPRLPRPRPRPEFGPRP	0.0617
RRIRCRPPRLPRPRPRPTTEPRP	0.419
RRIRRRPPRLPRPRPRPMYEPRP	-0.034
RRIRIRPPRLPRPRPRPPTFPRP	-0.166
RRIRERPPRLPRPRPRPSTEPRP	0.0386
RRIRKRPPRLPRPRPRPVHNPRP	-0.0446
RRIRWRPPRLPRPRPRPVTPPRP	0.666

Sequence	shrunken log2 fold change
RRIRTRPPRLPRPRPRPGVLPRP	0.08
RRIRERPPRLPRPRPRPMGGPRP	0.0346
RRIRFRPPRLPRPRPRPTHIPRP	-0.496
RRIRARPPRLPRPRPRPEHHPRP	0.132
RRIRCRPPRLPRPRPRPKTGPRP	-0.0569
RRIRMRPPRLPRPRPRPHLVPRP	-0.0163
RRIRARPPRLPRPRPRPIHKPRP	-0.0416
RRIRERPPRLPRPRPRPDMAPRP	-0.00146
RRIRGRPPRLPRPRPRPVQIPRP	0.335
RRIRDRPPRLPRPRPRPNVKPRP	-0.631
RRIRARPPRLPRPRPRPRWHPRP	0.323
RRIRWRPPRLPRPRPRPCPYPRP	-0.271
RRIRGRPPRLPRPRPRPFIGPRP	-0.258
RRIRGRPPRLPRPRPRPFYKPRP	-0.0686
RRIRFRPPRLPRPRPRPDYPPRP	-0.111
RRIRDRPPRLPRPRPRPSNRPRP	-0.052
RRIRVRPPRLPRPRPRPCKCPRP	-0.239
RRIRRRPPRLPRPRPRPYHSPRP	-0.017
RRIRPRPPRLPRPRPRPWLYPRP	-0.0765
RRIRNRPPRLPRPRPRPVWNPRP	-0.0723
RRIRSRPPRLPRPRPRPLEKPRP	-0.0565
RRIRHRPPRLPRPRPRPMGNPRP	-0.0499
RRIRWRPPRLPRPRPRPGGEPRP	0.107
RRIRCRPPRLPRPRPRPFYSPRP	-0.507
RRIRHRPPRLPRPRPRPQRSPRP	0.0449

Sequence	shrunken log2 fold change
RRIRVRPPRLPRPRPRPFSDPRP	-0.263
RRIRVRPPRLPRPRPRPRPLPRP	0.378
RRIRKRPPRLPRPRPRPMGVPRP	0.196
RRIRGRPPRLPRPRPRPMMTPRP	3.31
RRIRERPPRLPRPRPRPLICPRP	-0.74
RRIRARPPRLPRPRPRPSNPPRP	-0.0677
RRIRVRPPRLPRPRPRPTMFPRP	-0.158
RRIRARPPRLPRPRPRPLWPPRP	0.646
RRIRYRPPRLPRPRPRPSYCPRP	-0.407
RRIRTRPPRLPRPRPRPQDQPRP	0.0516
RRIRSRPPRLPRPRPRPPITPRP	-0.177
RRIRRRPPRLPRPRPRPSYKPRP	-0.563
RRIRQRPPRLPRPRPRPKQVPRP	0.0304
RRIRLRPPRLPRPRPRPSPNPRP	-0.183
RRIRCRPPRLPRPRPRPIPAPRP	0.0747
RRIRMRPPRLPRPRPRPFCIPRP	-0.288
RRIRNRPPRLPRPRPRPRSFPRP	0.0523
RRIRHRPPRLPRPRPRPQYCPRP	-0.00186
RRIRNRPPRLPRPRPRPIVKPRP	-0.339
RRIRDRPPRLPRPRPRPSVPPRP	-0.329
RRIRCRPPRLPRPRPRPTWYPRP	-0.28
RRIRFRPPRLPRPRPRPWGYPRP	-0.164
RRIRGRPPRLPRPRPRPIMYPRP	0.0639
RRIRERPPRLPRPRPRPWFHPRP	-0.421
RRIRTRPPRLPRPRPRPIDNPRP	-0.51
